Data as given in US6555347 (University of California, dated 2003).

Biological target: T1, lexA-bicoid (UniProt P09081 2-160)
T1 construct: also called nonspecific bait; not shown: LexA part of the two-hybrid bait
T1 sequence (looked up): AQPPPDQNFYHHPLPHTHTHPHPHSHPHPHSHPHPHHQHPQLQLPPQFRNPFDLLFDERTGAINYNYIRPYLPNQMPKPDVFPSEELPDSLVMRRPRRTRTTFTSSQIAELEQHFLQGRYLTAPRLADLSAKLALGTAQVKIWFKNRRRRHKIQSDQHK
Test: yeast two-hybrid (interaction trap), retransformation with control bait
Text: The human minor vault protein p193 amino acid sequence and the nucleotide sequence encoding human minor vault protein p193 were elucidated as follows. First, human vault protein p193 was cloned using an interaction trap, two-hybrid system according to techniques known to those with skill in the art. See, for example, Golemis, et al., *Current Protocols in Mol. Biol.* 20.1.1–20.35 John Willey & Sons, 1997, incorporated by reference in its entirety. In summary, rat major vault protein, GenBank accession number U09870, having the 67 amino acids at the amino-terminal truncated was used as bait against a HeLa acid fusion cDNA library obtained from Roger Brent, Boston, Mass., USA to search for proteins that interacted with rat major vault protein. The interacting proteins were identified by their ability to give rise to blue colonies on media containing galactose and X-gal, a color indicator substrate. The specificity of the interaction between the identified proteins and the rat major vault protein was verified by retransformation of the identified proteins with specific, rat major vault protein and nonspecific (lexA-bicoid) bait cDNAs. This technique identified the cDNA encoding the 193 kDa minor vault protein, SEQ ID NO: 1, by its interaction with the rat major vault protein.

- binding result: no binding
B1: human minor vault protein p193 (other)
chain: VCTQHWQDAVPWTELLSLQTEDGFWKLTPELGLILNLNTNGLHSFLKQKGIQSLGVKGRECLLDLIATMLVLQFIRTRLEKEGIVFKSLMKMDDPSISRNIPWAFEAIKQASEWVRRTEGQYPSICPRLELGNDWDSATKQLLGLQPISTVSPLHRVLHYSQG
notes: In the two-hybrid screen, p193 was a clone from a HeLa acid fusion cDNA library; In the western blots, immunofluorescence and immunoprecipitation, the form of p193 is not described; also called 193 kDa minor vault protein; human vault protein p193
